Measurements: the nanobody polyreactivity screen of Harvey et al. (2022)

experiment: yeast display, Sf9 membrane polyspecificity reagent, FACS + sequencing; frameworks hold sequencing errors
Outline: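 In a synthetic yeast display library (Saccharomyces cerevisiae BJ5465), nanobody expression was induced with galactose for 36–48 hours. FACS gates were set low and high (top ~1%) using anti-HA fluorescence for expression and streptavidin fluorescence for binding of the Sf9 membrane reagent. Each polyreactivity label is drawn from the gate of origin.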

| Sequence | polyreactivity (PSR sort gate) |
| --- | --- |
| QVQLVESRGGLVQAGGSLRLRCAASGFIFGYNVMGWYRQAPGKERELVASISTGGRTYYADSVKGRFTISRDNAKNTVYLQMNSLKPEDTAVYYCAARYRSYSYLYYSWGQGTQVTVSS | high polyreactivity |
| QVQLVESGGGLVQAGGSPRLSCAASGRIFGVNAMGWYRQAPGKERELVAAISVSGDSTYYADSVKGRFTISRDNAKNTVYLQMNSLKPEDTAVYYCYAGYTFVPADLTDEYYWGQGTQVTVSS | low polyreactivity |
| QVQLVESGGGLVQAGGSLRLSCAASGRIFIVYVMVWYRQAPGKESELVAAITGRGGSTYYADSVKGRFTISHDNAKNTVYLQMNSLKPEDTAVYYCDDYDGGGYDSWGQGNQVTVSS | low polyreactivity |
| QVQLVESVGGFVQAGGSLRLSCAASGFTFRIYAMGLYRKATVKERELVAGITWSVGSTYYADSVKGRFTISRDNAKNTVYLQMNSLKPEETAVYYCAVRRNQHVVQLYYWGQGTQGTVSS | low polyreactivity |
| QHQIVESGGGLVQAGGSLRLSCAASGSTIYRYAMGWYRQAPGKERELVAAISSSGGSTYYADSVKGRFTISRDNAKNTVYLQMNSLKPEDTAVYYCNAADRVRRFDYWGQGTQVTVSS | low polyreactivity |
| QVQLVESGGGLVQAGGSLRLSCAASGSIFGGYGMGWYRQAPGKERELVAVITKRGGSTYYADSVKGRFTISRDNAKNTVYLQMNSLKPEDTAVYYCNKVGYYASVLGYDYWGQGTQVTVSS | high polyreactivity |
| QVQLVESGGGLVQAGGSLRLSCAASGFTFYLYAMGWYRQAPGKERELVASISSGGRTYYADSVKGRFTISRDNAKNTVYLQMNSLKPEDTAVYYCAVSPYSRRKYEYYYWGQGTQVTVSS | high polyreactivity |
| QVQLVESGGGLVQAGGSLRLSCAASGRIYGPNAMGWYRQAPGKERELVAAISTSGGSTYYADSVKGRFTISRDNAKNTVYLQMNSLKPEDTAVYYCNVVHRGSWYYFWGQGTQVTVSS | high polyreactivity |
| QIHLVESGGGLVQAGGSLRLSCAASGGIFYINAMGWYRQAPGKEREFVAAITESSDITYYADSVKGRFTISRDNAKNTVYLQMNSLKPEDSAVYYCAAEFVRSGDDYWGQGTQVTVSS | low polyreactivity |
| QVQLVESGGGLVQAGGSLRLICADSGSTFTGNAMGWYRQAPGKERELVAAISRSGGRTYYADSVKGRFTISRDNAKNTVYLQMNSLKPEDTAVYYCNAVRNRGQRTAFDYWGQGTQVTVSS | high polyreactivity |
| QVQLVESGGGLVQAGGSLRLSCAASGFIFRYYAMGWYRQAPGKERELVASIDWSGGNTYYADSVKGRFTISRDNAKNTVYLQMNSLKPEDTAVYYCNRRGMDWGQVTQVTVSS | low polyreactivity |
| QVQLVESGGGLVQAGGSLRLSCDASGSIFGSYVMGWSRQAPGKERELVAAISSSGASTYYADSVKGRFTISRDNAKNTVYLQMNSLKPEDTAVYYCATTRRPYVRGYPHYYWGQGTQVTVSS | high polyreactivity |
| QVQLVESGGGLVQAGGRLRLSCAASGRIFKTNAMGWYRQAPGKERELVPAISKRGGRTYYADSVKGRFTISRDNAKNTVYLQMNSLKPEDTAVYYCATRYSGYSLGDYWGQGTQVTVSS | high polyreactivity |
| QVQLVESGGGLVQAGGSLRLSCAASGSIFRVYAMGWYRQSPGKERELVASIRSRGGSTYYADSVKGRFTISRDNAKNTVYLQMNSLKPEDTAVYYCGKSYWGGDEYWGQGTQVTVSS | low polyreactivity |
| QVQLVESGGGLVQAGGSLRISCASSGRIFKINAMGWYRQAPGKERELVATITRDGRTYYADSVKGRFTISRDNAKKTVYLQMNSLKPDDTAVYYCNVRRAFSGWRGYDYWGQGTQVTVSS | high polyreactivity |
| QVQLVESGGGLVQAGGSLRLSCAASGSTFYRYALGWYRQAPGKEREFVAAISRSGGSTNYADSVKGRFTISRDNAKNTVYLQMNSMKPEDTAVYYCAAKYSDYQYGRYYYWGQGTQVTVSS | high polyreactivity |
| QVQLVESGGGLVQAGGSLRLSCAASGSTFFHYPMGWYIQATGKERELVAAISWSGGRTSYADSVKGRFTISRDNAKNTVYLQKNSLKPEDTAVYYCAARGRYKDVYRMDYWGQGTQVTVSS | high polyreactivity |
